Experiment: yeast display, Sf9 membrane polyspecificity reagent, FACS + sequencing; frameworks hold sequencing errors
Summary of the method: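 Polyreactivity labels are assigned by the sorting gate from which each nanobody was recovered. The gates were low and high (top ~1%), set on anti-HA fluorescence for expression and streptavidin fluorescence for reagent binding. Before sorting, galactose-induced (36–48 hours) yeast display cells were stained for 1 hour at 4 °C with 10% biotinylated, detergent-solubilized Sf9 membrane reagent.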

Sequence | polyreactivity (PSR sort gate)
QVQLVESGAGLVQAGGSLRLSCAASGFIFVKYVMGWYRQAPGKERELDATITNGVSTNYADSVKGRFTISRDNAKNTVYLQMNSLKPEDTAVYYCNTGSTAWYFSGDYWGQGTQVTVSS | low polyreactivity
QVQLVESGAGLVQAGGSLRLSCAASGFTFKSNAMGWYRQAPGKERELVATISWGGASTSYADSVKGRFTISRDNAKNNVYLQMNSLKPEDTAVYYCKVRAQRRHGGYDHWGLGTQVTVSS | low polyreactivity
QVQLVESGAGLVQAGGSLRLSCAASGIIFASNAMGWYRQAPGKERELLATINWTDSSTYYADSVKGRFTISRDNAKNTVYLQMNSLKPEDTAVYYCNAVPHWFYRYGRYDYWGQGTQVTVSS | low polyreactivity
QVQLVESGAGLVQAGGSLRLSCAASGIIFTDYAMGWYRQAPGKERELVAANSSGGGSTYYADSVKGRFTISRDNAKNSVYLQLNSLKPDDTAVYDCAAQSSGSYGFDHWGQGTQVTVSS | high polyreactivity
QVQLVESGAGLVQAGGSLRLSCAASGRIFQYNAMGWYRQAPGKERELVAAISYSTTRTYYAESVKSRFTISRDNAKITVYLQMKSLKPEVSGVYYCAARGYFWSSYKYDYWGLGTQVTVSS | high polyreactivity
QVQLVESGAGLVQAGGSLRLSCAASGRIFVYNTMGWYRQAPGKEREFVAAITRSGGSTTYADSVKGRFTISRANAKNTVYLQRNSLKPEDTAVYYCAAGPFISYWVSRFGYWGQGTQVTVSS | high polyreactivity
QVQLVESGAGLVQAGGSLRLSCAASGRTFFVNAMGWYRQAPGKERELVATITFSGDSTYYADSVKGRFTISRDNAKNTVFLQMNSLKPEDTAVYYCAARTGYGYTRYEYWGQGTQVTVSS | high polyreactivity
QVQLVESGAGLVQAGGSLRLSCAASGRTFSRNAMGWYRQPPGKERELVATISRGGGITFYADSVKGRYTISRDNAKNTVYLQMNSLKPEDTAVYYCNADVRYVGLRRIVDYWGQGTQVTVSS | high polyreactivity
QVQLVESGAGLVQAGGSLRLSCAASGRTLTYNAMGWYRQAPGKEREFVAAISVGGGSTYADSVKGRFTISRDNAKNTVYLQMNRLKPEDTAVYYCAAAYTKLYYYWGQGTQVTVSS | low polyreactivity
QVQLVESGAGLVQAGGSLRLSCAASGSIINRNAMGGYRQAPGKERELVAAITRRGGSTYYADSVKGRFTISRDNAKNTVYLQKYSLKPEDTAVYYCNAVKALSSWSYEYWGQGTQGTVSS | high polyreactivity
QVQLVESGAGLVQAGGSLRLSCAASGSSSLYNAMGWYRQAPGKERELVAAISSGGSTNYADSVKGRFTISRENAKNNVYLQMNSLQPEDTAVYYCAAVTVRRVSCAQYKQYDYWGLGTQVTVSS | high polyreactivity
QVQLVESGAGLVQAGGSLRLSCAASGSTFESNTMGWYRQAPGKERELVAAISYSGGRTYYADSVKGRFTISRDNAKNTVYLQMNSLKPEDTAVYYCNADLYPYYWYTTGEFGYWGQGTQVTVSS | high polyreactivity
QVQLVESGAGLVQAGGSLRLSCAASGSTFKPNVMGWYRQAPGKERELVAAITSTDDRTYYADSVKGRFTISRDNAKNTVYLQMNSLKPEDTAVYYCAVESLRDDFEYDYWGQGTQVTVSS | low polyreactivity
QVQLVESGAGLVQAGGSLRLSCAASGSTFYMYAMGWDRTATGKERELLADISLSGVSTYYADSVKGRFTFSRDNAKHTVYLQMNSLKPEDTAVYYCAADVFYPGPWSYEYWGQGTHVTVSS | low polyreactivity
QVQLVESGAGLVQAGGSLRLSCAASGSTLVTNAMGWYRQAPGKERELVAAITFSGGTTYYADSVKGRFTISRDNAKNTVYLQMNSLKPEDTAVYYCAAEIWLEYVGYDYWGQGTQVTVSS | high polyreactivity
QVQLVESGAGLVQAGGSLRLSCAASGYIFYKNAMGWYRQAPGKERELVAAISTRGGSTYYADSVKGRFTISRDNAQNTVYLHMNSLKPEDTAVNYCAASQNRRDWGQGTQVTVSS | high polyreactivity
QVQLVESGAGLVQAGGSLRLSCAASGYTFSPNDMGWYRQAPGKERELVAAITSSVGSTYYADSVKGRFTISRDNAKNTVYLQMNSLKPEDTAVYYCNKQDSSYYISGGGDYDYWGQGTQVTVSS | low polyreactivity
QVQLVESGAGLVQAGGSLRLSCAASVSTLDLYAMGWYRQAPGKERELVAYISWSGGSTYYADSVKGRFTISRDNAKNTVYLQMNSLKPEDTAVYYCAAGNITPYRYYHGYYQSIYDYWGQGTQVTVSS | low polyreactivity
QVQLVESGAGLVQAGGSLRLSCAAYGRIFGIYALGWYRQAPGKEREFVAAISDRSGSRTYYADSVKGRFTISRDNAKNTVYLQINSLKPEDTAVYYCAAGILRWKDRWFEYWGQGTQVTVSS | high polyreactivity
QVQLVESGAGLVQAGGSLRLSCAPSGRIFEYNAMGWYRQAPGKESELVAAIRSGGGSTYYADSVKGRFTISRDNAKNTVYLQMNSLNPEDTAVYYCAARRKRVSFYAEYDYWGQGTQVTVSS | low polyreactivity
QVQLVESGAGLVQAGGSLRLSCDASGLIFAGYAMGWYRQAPGTERELVAAITWRGGRTYADSVKGRFTISRDNAKNTVYLQINSLKPEDTAVYYCNKDPWYVFHPRGQFLFDYWGQGTQVTVSS | low polyreactivity

Sequence | polyreactivity (PSR sort gate)
QVQLVESGAGLVQAGGSLRLSCSAYGFIFGFYAMGWSRQAPGKERELVADITSSGGSTYYADSVKGRFTLSRDNAKNTVYLQMNSLKPEDTAVYYCAADGWWHNFYPGNGLDYWGQGTQVTVSS | low polyreactivity
QVQLVESGAGLVQAGGSLRLSFAASGRTFVSYDMGWYRQATGKERELVAAITYSGGSSTYYADSVKGRFTISRDNAKNTVYLQMNSLKPEDTAVYYCAVYGGGSRNFGDVGYWGQGTLVTVSS | low polyreactivity
QVQLVESGAGLVQAGGSLRLTCAASGSTFLDMGLYRQAPAKEREFVASISLSGGSTYYADSVKGRFTISRDNAKNTVYLQMNSLKPEDTAVYYCNAEAWWYFWFDYWGQGTQVTVSS | low polyreactivity
QVQLVESGARIVQAGGSLRLSCAAYGSTFGRYGMGWYRQAPGKERELVAAISRAGGTNYADSVKGRITISRDNAKNTVYLQMNSLKPEDTAVYYCNARWYYVLYDYWGQGTQVTVSS | low polyreactivity
QVQLVESGARLVQAGGSLRLSCAASGRTVAYNAMGWSREAAGKEREVDPAISRRGGSTYYADSVKGRFTISRDNAKNTVNLQMNSLKPEDTAVYYCASRRLRRASSLDYWGQGSQVTVSS | high polyreactivity
QVQLVESGARLVQAVGSLRLSCAASARILTFNAMGWYRQAPGKEREVVASITSDVSTYYADSVKGRFTISRDNAKTTVYLQMNSLKPEDTAVYYCAADGWYTYVGRLDYWRQGTQVTVSS | low polyreactivity
QVQLVESGGALDQAGGSLRLSCAASGSTFISNAMGWYRQAPGKERELVAAISSGGGRTSYADSVKGRFTISRDNANNTVYLQMNSLKPEDTAVYYCNTKKLPYAEGYWGQGTQVTVSS | low polyreactivity
QVQLVESGGALFQAGGSLRLSCAASGIIFGVYAMGWYRQAPVKERELVASITWGGGSTYYADSVKGRFTISRDNAKNTVYLQMNSLKPEDTAVYYCNKRGYPGYDWGQGTQVTVSS | low polyreactivity
QVQLVESGGALLQAGGSLRLSCAASGSIFRFYAMGWYRQAPGKERELVARISGGGTTNYADSVKGRFTISRDNAKYTVYLQKNSQKPDDTAVYYCAAGCLYLPIWYPRWRYEYWGQGTQVTVSS | low polyreactivity
QVQLVESGGALVQAAGSLRLSCAASGRTFRRNTMGWYRQAPGKERELVAAISSSGSSTYYADSVKGRFTISRDNEKNTVYLQMNSLKPEDTAVYYCAATGSRRFGYWGQGTQVTVSS | high polyreactivity
QVQLVESGGALVQAGASLRLSCAASGFTFWDYAMGWYRQAPGKERELVAAISDNDGSTDYADSVKGRFTISRDIAKNSVYLQMNSLKPEDTAVYSCNAEIELPSKVGDYWGQGTLVTVSS | low polyreactivity
QVQLVESGGALVQAGATLRISSAASGSIFYRNSMRWYRQAPGKEREKVAANSSDGSRNYADSVKGRFSISRDNAKNTVYLQMNSLKPEDNAVYYCAVDYGTQYGEYTYYDYDYWGQCTQVTVSS | low polyreactivity
QVQLVESGGALVQAGCSLSLSCAASGRIFSHNAMGWYRQAPGKERELVAGISSGGGTTYADSVKGRFTISRDNAKNNVYLQMNSLKPEDTAVYYCNKQDQPVGRSGYPYGYDYWGQGTQVTVSS | low polyreactivity
QVQLVESGGALVQAGGSLRLICAASGRIFPRNVMGWYRQAPGKERELVAAISSRGTRTYYADSVKGRFTISRDNAKNTVYLQMYSLKPEDTAVYYCAADGPYEGYDYWGQGTQVTVSS | high polyreactivity
QVQLVESGGALVQAGGSLRLICAASGRTFQKYTMGWYRQAPGKERELVAAISKRGGSTYYADSVKGRFTISRDNAKNTVYLQMNSLKPEDTAVYYCATRVYRSAVSYDYWGQGTQVTVSS | high polyreactivity
QVQLVESGGALVQAGGSLRLSCAASAFIFKANAMGRYRQAPGKERELVASITFGGDSTYYADSVKGRFTISRDNAKNTVYLQMNSLKAEDNAVYFCNTRRRSYPTYYYWGQGTQVTVLS | low polyreactivity
QVQLVESGGALVQAGGSLRLSCAASGFIFGSYVMGWYRQAPGKERELVAAISQIGGRTYYADSVKGRFTISRDNAKKTVYLQMNSLKPEDTAVYYCAARWAGYRYVGGYWRDDMDYWGQGTQVTVSS | high polyreactivity
QVQLVESGGALVQAGGSLRLSCAASGFIFPYYAMGWYRQAPGKERELVAAITFSATRTYYADSVKGRFTISRDNAKNTVYLQMNSLKPEDTAVYYCAVGSASSGYEYDYWGQGTQVTVSS | low polyreactivity
QVQLVESGGALVQAGGSLRLSCAASGFTFRRYAMGWYRQAPGKERELVAAINKSGGSTYYADSVKGRFTISRDKSKNTVYFQMNSLKPEDTAVYYCAARFSYWKTKRAYDWGQGTQVNVSS | high polyreactivity
QVQLVESGGALVQAGGSLRLSCAASGRIFGVNTMGWYRQAPGKERELVDAISAGGGSTYYADSVKGRFTISRDLAKNTVYLQMNSLKPEDTAVYYCNVLTLNYRSTSRRKEYDYWGQGTQVTVSS | high polyreactivity

Source: the nanobody polyreactivity screen of Harvey et al. (2022)
